Molecular target: T1, V117E mutant of soluble human IL-11Rα (SEQ ID NO: 95) (human, UniProt Q14626 23-318)
T1 construct: also called V95E
T1 sequence: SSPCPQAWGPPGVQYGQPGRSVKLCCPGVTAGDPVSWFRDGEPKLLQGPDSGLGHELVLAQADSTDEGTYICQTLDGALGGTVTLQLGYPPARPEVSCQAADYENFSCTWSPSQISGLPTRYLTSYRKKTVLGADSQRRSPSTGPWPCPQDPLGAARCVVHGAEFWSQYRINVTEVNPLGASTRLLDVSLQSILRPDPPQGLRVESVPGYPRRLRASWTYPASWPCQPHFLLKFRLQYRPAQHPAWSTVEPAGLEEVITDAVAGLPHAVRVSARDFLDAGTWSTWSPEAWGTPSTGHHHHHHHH
Assay: Biacore, antibody captured on anti-human IgG Fc, receptor injected; mean ± SE, N = 4
Procedure: Various point mutants of soluble forms of IL-11R were produced in which amino acids from mIL-11 were introduced into a soluble form of hIL-11 (SEQ ID NO: 85) (see Table 5 for positions of mutations relative to SEQ ID NO: 1 and for reference to the SEQ ID NO: of each polypeptide) and the binding of antibodies to those polypeptides or to polypeptides of SEQ ID NO: 3 or SEQ ID NO: 85 was determined using Biacore analysis or FACS.
Anti human IgG Fc specific antibody was chemically immobilized on a CM5 chip to ˜9000 RU. Antibodies were captured at about 0.3-1 μg/ml for 120 seconds on 2 spots in each flow cell. Adjacent spots consisting of only anti human IgG were used as a reference. IL-11 receptors were injected over the captured antibodies and reference spots at 40, 10, 5 and 2.5 nM in duplicate. Blank injections of buffer only were also performed in duplicate. Injection was performed for 3 minutes and dissociation monitored for a further 5 minutes.

B1: antibody 8E4 (antibody, human IgG4 S228P, lambda, V domains shown)
VH: EVQLLESGGGLVQPGGSLRLSCAASGFTFSWYFMGWVRQAPGKGLEWVSYIYPSGGSTGYADSVKGRFTISRDNSKNTLYLQMHSLRAEDTAVYYCARDEGYCSSTSCYFDAFDIWGQGTMVTVSS
VL: QSALTQPPSASGSPGQSVAISCTGTSSDVGGYNFVSWYQQHPGKAPKLLIYEVTKRPSGVPDRFSGSKAGNTASLTVSGLQAEDEADYYCSSYGGSNNAGVFGTGTKVTVLG
Kd: 5.54 nM

From patent publication US20160031999A1 (CSL, published 2016)
